{
  "source": "paper PMC10998906",
  "key": {"[1]": {"biological_target": "HA GCN4 (NL03 HA fused to a GCN4 trimerization domain) (influenza A virus A/Netherlands/213/2003(H3N2))", "assay": "SEC"}, "[2]": {"biological_target": "HA GCN4 (NL03 HA fused to a GCN4 trimerization domain) (influenza A virus A/Netherlands/213/2003(H3N2))", "assay": "negative-stain EM"}},
  "data": [
    {"substance": "HA GCN4 (NL03 HA fused to a GCN4 trimerization domain) (domain or fragment)", "values": [
      {"measurement": "stoichiometry N", "setting": "[1]", "value": 3},
      {"measurement": "stoichiometry N", "setting": "[2]", "value": 3}
    ]}
  ]
}
